Experimental data: patent publication US7271143B1, “Peptides for regulation of urokinase (uPA) and tissue type (tPA) plasminogen activator and method of optimizing therapeutic efficacy” (Thrombotech Ltd., priority 2001, dated 2007)
Read-outs that look alike come from different tables or passages of the source.

How the values were obtained:
[1] = cited from earlier work
[2] = rabbits, arterial venous shunt; cited from earlier work
[3] = in vitro, cited from earlier work
[4] = molecular target: plasminogen activator inhibitor-1 (PAI-1) (Homo sapiens, UniProt P05121); conditions: higher than tPA; cited from earlier work
Chain of plasminogen activator inhibitor-1 (PAI-1) (P05121 24-402, species assumed): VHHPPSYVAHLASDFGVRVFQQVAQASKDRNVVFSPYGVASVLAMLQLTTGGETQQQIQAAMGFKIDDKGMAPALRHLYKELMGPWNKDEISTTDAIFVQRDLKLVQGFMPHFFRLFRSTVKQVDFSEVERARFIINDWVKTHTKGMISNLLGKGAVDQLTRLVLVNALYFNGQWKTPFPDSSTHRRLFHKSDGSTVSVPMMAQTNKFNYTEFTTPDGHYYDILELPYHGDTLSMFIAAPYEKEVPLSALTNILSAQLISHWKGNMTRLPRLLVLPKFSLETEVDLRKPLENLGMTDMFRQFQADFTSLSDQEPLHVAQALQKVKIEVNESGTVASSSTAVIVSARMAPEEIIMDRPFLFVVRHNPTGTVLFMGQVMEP

fibrin = molecular target: T1, fibrin (Homo sapiens, UniProt P02671+P02675+P02679); conditions: greater than tPA; cited from earlier work
T1 sequence (P02671 20-644 isoform P02671-2 limits assumed): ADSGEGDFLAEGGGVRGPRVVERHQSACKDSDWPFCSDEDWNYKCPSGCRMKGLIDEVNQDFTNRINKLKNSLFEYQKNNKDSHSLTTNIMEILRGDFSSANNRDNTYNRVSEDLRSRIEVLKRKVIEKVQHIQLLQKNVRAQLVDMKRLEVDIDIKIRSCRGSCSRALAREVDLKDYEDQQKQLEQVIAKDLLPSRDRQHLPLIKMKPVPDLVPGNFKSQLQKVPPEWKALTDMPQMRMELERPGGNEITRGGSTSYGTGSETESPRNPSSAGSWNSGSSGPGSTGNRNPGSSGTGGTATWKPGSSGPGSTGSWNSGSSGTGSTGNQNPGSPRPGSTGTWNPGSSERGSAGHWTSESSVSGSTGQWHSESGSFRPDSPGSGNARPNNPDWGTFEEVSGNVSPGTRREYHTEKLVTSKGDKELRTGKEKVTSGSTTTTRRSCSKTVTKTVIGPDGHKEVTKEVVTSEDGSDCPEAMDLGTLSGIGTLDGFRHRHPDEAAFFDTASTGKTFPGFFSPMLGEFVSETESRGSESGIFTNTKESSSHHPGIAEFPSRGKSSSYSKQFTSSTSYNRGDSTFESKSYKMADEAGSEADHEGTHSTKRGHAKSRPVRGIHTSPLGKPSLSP
T1 sequence (P02675 45-491 limits assumed): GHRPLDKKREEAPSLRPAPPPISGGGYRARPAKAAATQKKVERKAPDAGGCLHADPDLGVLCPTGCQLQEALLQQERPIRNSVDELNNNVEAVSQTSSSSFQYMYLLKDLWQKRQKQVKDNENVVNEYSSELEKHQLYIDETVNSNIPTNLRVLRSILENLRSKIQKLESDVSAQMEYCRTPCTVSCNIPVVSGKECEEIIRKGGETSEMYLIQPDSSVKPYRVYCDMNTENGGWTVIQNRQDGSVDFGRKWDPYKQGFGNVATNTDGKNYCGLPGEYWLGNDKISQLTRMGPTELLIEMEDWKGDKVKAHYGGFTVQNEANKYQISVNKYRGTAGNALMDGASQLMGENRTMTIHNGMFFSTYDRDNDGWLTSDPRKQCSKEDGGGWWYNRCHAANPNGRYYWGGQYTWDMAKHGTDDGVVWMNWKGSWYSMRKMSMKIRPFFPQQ
T1 sequence (P02679 27-437 isoform P02679-2 limits assumed): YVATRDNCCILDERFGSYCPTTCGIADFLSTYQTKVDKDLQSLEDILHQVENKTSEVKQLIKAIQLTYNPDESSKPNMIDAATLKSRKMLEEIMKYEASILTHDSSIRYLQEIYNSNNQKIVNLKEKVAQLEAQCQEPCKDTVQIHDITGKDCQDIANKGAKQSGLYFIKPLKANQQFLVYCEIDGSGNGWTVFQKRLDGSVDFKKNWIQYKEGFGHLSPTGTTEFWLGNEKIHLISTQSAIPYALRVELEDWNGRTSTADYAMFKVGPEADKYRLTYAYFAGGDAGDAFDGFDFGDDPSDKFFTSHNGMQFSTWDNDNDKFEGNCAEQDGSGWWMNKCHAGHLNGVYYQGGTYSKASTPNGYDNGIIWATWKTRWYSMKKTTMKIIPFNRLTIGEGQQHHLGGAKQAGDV

isolated rat aorta rings = assay: PE-induced contraction of isolated rat aorta rings; assay type: cell-based
Description: FIG. 1A is a diagram describing the results of experiments on the effect of tPA on PE-induced contraction of isolated rat aorta rings. Contraction of aortic rings was induced by increasing the concentrations of phenylephrine (PE), in the absence of tPA (full triangles) or in the presence of 1 nM (filled squares) or 20 nM tPA (empty squares).
FIG. 1B describes the results of experiments in which the contraction of aortic rings was induced in the absence of TNK-tPA (filled triangles), in the presence of 1 nM tPA (filled squares) or 20 nM tPA (empty squares).
FIG. 4 is a graph describing the effect of tPA on phenylepbrine-induced contraction of isolated rat aorta rings in vitro. The contraction of the aorta rings was induced by varying concentrations of phenylephrine in the absence of tPA (filled triangles), in the presence of 1 nM of TA (filled squares) or in the presence of 10 nM tPA (empty squares). The experiments were performed according to procedures described earlier by Haj-Yehia A et al., FASEB J, 2000, 14:1411–1422.
The effect of TNK-tPA on PE-induced contraction was compared with the effect of tPA, in the isolated aorta rings. […]

B1: TNK-tPA: bioengineered variant of tissue-type plasminogen activator with tetra-alanine substitution in the protease domain (protein)
chain: SYQVICRDEKTQMIYQQHQSWLRPVLRSNRVEYCWCNSGRAQCHSVPVKSCSEPRCFNGGTCQQALYFSDFVCQCPEGFAGKCCEIDTRATCYEDQGISYRGTWSTAESGAECTNWNSSALAQKPYSGRRPDAIRLGLGNHNYCRNPDRDSKPWCYVFKAGKYSSEFCSTPACSEGNSDCYFGNGSAYRGTHSLTESGASCLPWNSMILIGKVYTAQNPSAQALGLGKHNYCRNPDGDAKPWCHVLKNRRLTWEYCDVPSCSTCGLRQYSQPQFRIKGGLFADIASHPWQAAIFAAAAASPGERFLCGGILISSCWILSAAHCFQERFPPHHLTVILGRTYRVVPGEEEQKFEVEKYIVHKEFDDDTYDNDIALLQLKSDSSRCAQESSVVRTVCLPPADLQLPDWTECELSGYGKHEALSPFYSERLKEAHVRLYPSSRCTSQHLLNRTVTDNMLCAGDTRSGGPQANLHDACQGDSGGPLVCLNDGRMTLVGIISWGLGCGQKDVPGVYTKVTNYLDWIRDNMRP
efficacy compared with rtPA ([1]; comparative clinical trials): equivalent efficacy
non-cerebral bleeding episodes ([1]; in vivo): 4.66%
rate of intracranial hemorrhage compared with rtPA ([1]; in vivo): similar
time required for 50% lysis relative to rtPA [2]: one third
potency relative to tPA ([3]; platelet-enriched clots): 13 fold
potency relative to tPA ([3]; whole blood clots): 8 fold
resistance to PAI-1 relative to tPA [4]: 80 fold
relative fibrin specificity (fibrin): 14 fold
effect on PE-induced vasoconstriction (isolated rat aorta rings; 1 nM): stimulated
effect on PE-induced vasoconstriction (isolated rat aorta rings; 20 nM): increased its stimulatory effect
